The data set deals with the molecule itself. In words: SEC; size-exclusion HPLC, TSK G3000 SWXL column, PBS with 200 mM NaCl, 1 ml/min, 50 ug protein at about 1 mg/ml; native conditions; molecular weight standards.

Results on one protein are retold here after article PMC3260182, “Stabilisation of the Fc Fragment of Human IgG1 by Engineered Intradomain Disulfide Bonds” (PLoS ONE, 2012).

As usually defined, the stoichiometry N is the number of molecules, sites or subunits per partner or assembly.

B1: Fc fragment of human IgG1 with the CysP2 and CysP4 disulfide bonds combined (domain or fragment)
chain: EFTCPPCPAPELLGGPSVFLFPPKPKDTLMISRTPEVTCVVVDVSHEDPEVKFNWYVDGVEVHNAKTKPREEQYNSTYRVVSVLTVLHQDWLNGKEYKCKVSNKALPAPIEKTISKAKGQCREPQVYTLPPSRDELTKNQVSLTCLVKGFYPCDIAVEWESNGQPENNYKTTPCVLDSDGSFFLYSKLTVDKSRWQQGNVFSCSVMHECLHNHYTQKSLSLSPGK
modifications: N-linked glycosylation at residue Asn297; engineered intradomain disulfide bonds between Cys343 and Cys431 and between Cys375 and Cys396
notes: 2 extra amino acid residues at the N-terminal site due to the EcoRI site used for cloning; the substitutions are still to be applied; Fc fragment of the human IgG1 heavy chain constant region in which the CysP2 and CysP4 mutations are combined; the first letter T is position 225. numbers count on: Kabat EU numbering; Primers are in File S1; also called CysP24; FcCysP24; source: Pichia pastoris …
Consider B1, for which the “stoichiometry N” value came out at 2.
